Assay [1] has as its target human ciliary neurotrophic factor receptor (CNTFR) (human). The experiment in a line: monolayer binding of 2.16 nM 125I-CNTF to SH-SY5Y cells (3 x 10^5 cells/well, endogenous receptor); cpm with 1000-fold excess unlabelled CNTF subtracted.
Assay [2] has the same target. In words: approx. 100 pM iodinated CNTF on SH-SY5Y cells pre-treated with PI-PLC 500 mU/ml; with thousand-fold excess unlabelled CNTF (non-specific).
The target is the same in assay [3]. The experiment in a line: iodinated CNTF bound to SH-SY5Y cells first, then PI-PLC 500 mU/ml for 45 min; no cold excess.
For assay [4] the target is unchanged. In words: iodinated CNTF bound to SH-SY5Y cells first, then incubation without PI-PLC; no cold excess.
The target is the same in assay [5]. The experiment in a line: monolayer binding of 2.16 nM 125I-CNTF to COS cells transfected with clone I2 (6.5 x 10^4 cells/well); specific cpm per cell.
Assay [6] shares this target. In words: approx. 100 pM iodinated CNTF on SH-SY5Y cells pre-treated with PI-PLC 500 mU/ml (receptor released before binding); no cold excess.
For assay [7] the target is unchanged. The experiment in a line: monolayer binding of 2.16 nM 125I-CNTF to COS cells transfected with clone I2 (6.5 x 10^4 cells/well); cpm with 1000-fold excess unlabelled CNTF subtracted.
Assay [8] has the same target. The experiment in a line: approx. 100 pM iodinated CNTF on SH-SY5Y cells; control pre-treatment without PI-PLC; no cold excess.
Assay [9] has the same target. The experiment in a line: iodinated CNTF bound to SH-SY5Y cells first, then incubation without PI-PLC; with excess unlabelled CNTF (non-specific).
Assay [10] has the same target. The experiment in a line: iodinated CNTF bound to SH-SY5Y cells first, then PI-PLC 500 mU/ml for 45 min; with excess unlabelled CNTF (non-specific).
For assay [11] the target is unchanged. The experiment in a line: monolayer binding of 2.16 nM 125I-CNTF to SH-SY5Y cells (3 x 10^5 cells/well, endogenous receptor); specific cpm per cell.
The target is the same in assay [12]. The experiment in a line: approx. 100 pM iodinated CNTF on SH-SY5Y cells; control pre-treatment without PI-PLC; with thousand-fold excess unlabelled CNTF (non-specific).
The target is the same in assay [13]. The experiment in a line: indirect binding assay on COS cells transfected with clone I11: 1 ug/ml CNTF-myc, 9E10, 125I goat anti-mouse antibody; hand-held gamma counter.
For assay [14] the target is unchanged. In words: indirect binding: CNTF-myc, 9E10 antibody, FITC-labelled goat anti-mouse antibody, FACS on transfected COS cells.
Assay [15] has the same target. In words: indirect binding assay on COS cells transfected with clone I7: 1 ug/ml CNTF-myc, 9E10, 125I goat anti-mouse antibody; hand-held gamma counter.
Assay [16] has the same target. The experiment in a line: indirect binding assay on COS cells transfected with clone I4: 1 ug/ml CNTF-myc, 9E10, 125I goat anti-mouse antibody; hand-held gamma counter.
For assay [17] the target is unchanged. The experiment in a line: indirect binding assay on COS cells transfected with clone I1: 1 ug/ml CNTF-myc, 9E10, 125I goat anti-mouse antibody; hand-held gamma counter.
Assay [18] shares this target. The experiment in a line: indirect binding assay on COS cells transfected with clone I12: 1 ug/ml CNTF-myc, 9E10, 125I goat anti-mouse antibody; hand-held gamma counter.
For assay [19] the target is unchanged. The experiment in a line: indirect binding assay on COS cells transfected with clone I10: 1 ug/ml CNTF-myc, 9E10, 125I goat anti-mouse antibody; hand-held gamma counter.
For assay [20] the target is unchanged. In words: indirect binding assay on COS cells transfected with clone I8: 1 ug/ml CNTF-myc, 9E10, 125I goat anti-mouse antibody; hand-held gamma counter.
The target is the same in assay [21]. The experiment in a line: indirect binding assay on COS cells transfected with clone I13: 1 ug/ml CNTF-myc, 9E10, 125I goat anti-mouse antibody; hand-held gamma counter.
Assay [22] shares this target. In words: indirect binding assay on COS cells transfected with clone I2: 1 ug/ml CNTF-myc, 9E10, 125I goat anti-mouse antibody; hand-held gamma counter.
Assay [23] has the same target. In words: indirect binding assay on COS cells transfected with clone I5: 1 ug/ml CNTF-myc, 9E10, 125I goat anti-mouse antibody; hand-held gamma counter.
For assay [24] the target is unchanged. The experiment in a line: indirect binding assay on COS cells transfected with clone I9: 1 ug/ml CNTF-myc, 9E10, 125I goat anti-mouse antibody; hand-held gamma counter.
For assay [25] the target is unchanged. The experiment in a line: indirect binding assay on COS cells transfected with clone I15: 1 ug/ml CNTF-myc, 9E10, 125I goat anti-mouse antibody; hand-held gamma counter.
For assay [26] the target is unchanged. In words: indirect binding assay on COS cells transfected with clone I14: 1 ug/ml CNTF-myc, 9E10, 125I goat anti-mouse antibody; hand-held gamma counter.
Assay [27] shares this target. In words: indirect binding assay on COS cells transfected with clone I6: 1 ug/ml CNTF-myc, 9E10, 125I goat anti-mouse antibody; hand-held gamma counter.

As for “125I-hCNTF (iodinated human ciliary neurotrophic factor) (from UniProt P26441 1-200) (ligand)”, the Specific cpm bound in [1] was 1280 cpm; in [7] it was 1410 cpm. The CPM Bound in assay [2] was determined as 310 CPM; in assay [3], 1060 CPM; in [4] it was 1250 CPM; in assay [6] it was 420 CPM; in [8], 1440 CPM; in [9], 310 CPM. Besides, the values for the CPM Bound in assay [10] and in assay [12] were 300 CPM and 370 CPM, respectively. Further, the cpm/cell in [5] was found to be 0.0217 cpm/cell; in assay [11], 0.00428 cpm/cell.
As to “CNTF/myc (CNTF carrying a C-terminal ten amino acid c-myc epitope tag) (ligand)”, the CPM bound (125I-GaM) in assay [13] amounted to 7000 CPM; in assay [15] it was 6000 CPM; in assay [16], 9000 CPM; in [17], 2000 CPM; in [18], 5000 CPM; in assay [19] it was 4500 CPM. In addition, the CPM bound (125I-GaM) was 7500 CPM in assay [20]; 8000 CPM in [21]; 8500 CPM in assay [22]; 2000 CPM in assay [23]; 7000 CPM in assay [24]; 8000 CPM in assay [25]. Further, the CPM bound (125I-GaM) is 10000 CPM in assay [26] and 1600 CPM in assay [27]. In addition, the fold increase (FACS fluorescence) against cells transfected with negative clones in assay [14] amounted to 100 fold.

These data come from EP0533846B1.
